Laboratory results as given in PMC8060896 (The Journal of Biological Chemistry, 2002).

B1: S1 co-produced with N-CEACAMFc in 293 cells (domain or fragment)
chain: GYIGDFRCIQTVNYNGNNASAPSISTEAVDVSKGRGTYYVLDRVYLNATLLLTGYYPVDGSNYRNLALTGTNTLSLTWFKPPFLSEFNDGIFAKVQNLKTNTPTGATSYFPTIVIGSLFGNTSYTVVLEPYNNIIMASVCTYTICQLPYTPCKPNTNGNRVIGFWHTDVKPPICLLKRNFTFNVNAPWLYFHFYQQGGTFYAYYADKPSATTFLFSVYIGDILTQYFVLPFICTPTAGSTLAPLYWVTPLLKRQYLFNFNEKGVITSAVDCASSYISEIKCKTQSLLPSTGVYDLSGYTVQPVGVVYRRVPNLPDCKIEEWLTAKSVPSPLNWERRTFQNCNFNLSSLLRYVQAESLSCNNIDASKVYGMCFGSVSVDKFAIPRSRQIDLQIGNSGFLQTANYKIDTAATSCQLYYSLPKNNVTINNYNPSSWNRRYGFKVNDRCQIFANILLNGINSGTTCSTDLQLPNTEVATGVCVRYDLYGITGQGVFKEVKADYYNSWQALLYDVNGNLNGFRDLTTNKTYTIRSCYSGRVSAAYHKEAPEPALLYRNINCSYVFTNNISREENPLNYFDSYLGCVVNADNRTDEALPNCNLRMGAGLCVDYSKSRRARRSVSTGYRLTTFEPYMPMLVNDSVQSVGGLYEMQIPTNFTIGHHEEFIQIRAPKVTIDCAAFVCGDNAACRQQLVEYGSFCDNVNAILNEVNNLLDNMQLQVASALMQGVTISSRLPDGISGPIDDINFSPLLGCIGSTCAE
B2: S1 (769-residue S1 fragment of the MHV strain JHM spike protein, produced independently from cDNA) (domain or fragment)
chain: GYIGDFRCIQTVNYNGNNASAPSISTEAVDVSKGLGTYYVLDRVYLNATLLLTGYYPVDGSNYRNLALTGTNTLSLTWFKPPFLSEFNDGIFAKVQNLKTNTPTGATSYFPTIVIGSLFGNTSYTVVLEPYNNIIMASVCTYTICQLPYTPCKPNTNGNRVIGFWHTDVKPPICLLKRNFTFNVNAPWLYFHFYQQGGTFYAYYADKPSATTFLFSVYIGDILTQYFVLPFICTPTAGSTLLPLYWVTPLLKRQYLFNFNEKGVITSAVDCASSYISEIKCKTQSLLPSTGVYDLSGYTVQPVGVVYRRVPNLPDCKIEEWLTAKSVPSPLNWERRTFQNCNFNLSSLLRYVQAESLSCNNIDASKVYGMCFGSVSVDKFAIPRSRQIDLQIGNSGFLQTANYKIDTAATSCQLYYSLPKNNVTINNYNPSSWNRRYGFNDAGVFGKSKHDVAYAQQCFTVRPSYCPCAQPDIVSACTSQTKPMSAYCPTGTIHRECSLWNGPHLRSARVGSGTYTCECTCKPNPFDTYDLRCGQIKTIVNVGDHCEGLGVLEDKCGNSDPHKGCSCANDSFIGWSHDTCLVNDRCQIFANILLNGINSGTTCSTDLQLPNTEVATGVCVRYDLYGITGQGVFKEVKADYYNSWQALLYDVNGNLNGFRDLTTNKTYTIRSCYSGRVSAAYHKEAPEPALLYRNINCSYVFTNNISREENPLNYFDSYLGCVVNADNRTDEALPNCDLRMGAGLCVDYSKSRRARR

Assays:
[1] = molecular target: N-CEACAMFc (N-domain of murine CEACAM1^a linked to a carboxyl-terminal IgG1 Fc) (murine); experiment: pull-down
[2] = molecular target: N-CEACAMFc (N-domain of murine CEACAM1^a linked to a carboxyl-terminal IgG1 Fc) (murine); experiment: pull-down; remark: listed apart in the source
Target sequence in this assay (P31809 35-428): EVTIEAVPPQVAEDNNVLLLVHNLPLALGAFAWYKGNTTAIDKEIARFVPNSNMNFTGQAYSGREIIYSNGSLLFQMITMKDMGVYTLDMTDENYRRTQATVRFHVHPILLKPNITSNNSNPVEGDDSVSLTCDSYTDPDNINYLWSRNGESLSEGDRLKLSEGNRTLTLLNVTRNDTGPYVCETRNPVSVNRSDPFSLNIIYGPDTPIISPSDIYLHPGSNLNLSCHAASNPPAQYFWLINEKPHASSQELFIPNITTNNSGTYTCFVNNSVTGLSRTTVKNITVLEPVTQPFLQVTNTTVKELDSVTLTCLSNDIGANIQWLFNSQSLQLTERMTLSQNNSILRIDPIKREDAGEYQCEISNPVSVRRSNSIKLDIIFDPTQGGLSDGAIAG

[3] = molecular target: the molecule itself; experiment: velocity sucrose gradient ultracentrifugation

| Molecule | 35S in the boxed band precipitated with N-CEACAMFc [1] [cpm] | also measured |
| --- | --- | --- |
| S_(T212S/Y214S/Y216S) (full-length S of JHM strain with the indicated substitutions) (from UniProt P11225 14-1235) (natural protein) | 2140 |  |
| Hetero-oligomer of S_(T212S/Y214S/Y216S) with wild-type S1_(330) (from UniProt P11225 14-1235; P11225 14-330) (complex) | 4330 |  |
| B1 |  | ^35S-labeled S1:^35S-labeled N-CEACAMFc ratio [2]: 3.4 |
| B2 |  | stoichiometry N [3]: 2 |
